Measurements taken from patent publication US20090208538A1 (ROCKEFELLER UNIVERSITY, published 2009).

Columns and labels:
HLA-A*0301 [1] = biological target: HLA-A*0301 (human); test: iTopia affinity
HLA-A*0301 [2] = biological target: HLA-A*0301 (human); test: iTopia off-rate
HLA-A*1101 [3] = biological target: HLA-A*1101 (human); test: iTopia affinity;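 further: affinity derived from a titration of eight serial peptide dilutions, each run under the same conditions as the binding screen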
HLA-A*1101 [4] = biological target: HLA-A*1101 (human); test: iTopia off-rate
HLA-A*1501 [5] = biological target: T1, HLA-A*1501 (human); test: iTopia affinity
T1 construct: possibly meant as HLA-B*1501

HLA-A*0301 [6] = biological target: HLA-A*0301 (human); test: iTopia net score
HLA-A*1101 [7] = biological target: HLA-A*1101 (human); test: iTopia net score
HLA-A*1501 [8] = biological target: T1, HLA-A*1501; test: iTopia net score
HLA-B*0702 [9] = biological target: HLA-B*0702 (human); test: iTopia affinity
HLA-B*0702 [10] = biological target: HLA-B*0702 (human); test: iTopia off-rate
HLA-B*0801 [11] = biological target: HLA-B*0801 (human); test: iTopia affinity
HLA-B*0702 [12] = biological target: HLA-B*0702 (human); test: iTopia net score
HLA-B*0801 [13] = biological target: HLA-B*0801 (human); test: iTopia net score
HLA-A*2402 [14] = biological target: HLA-A*2402 (human); test: iTopia affinity;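 further: peptide binding to HLA-A*2402 measured in iTopia kit format across eight serial peptide dilutions, ED50 derived from the resulting titration curve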
HLA-A*2402 [15] = biological target: HLA-A*2402 (human); test: iTopia off-rate
HLA-A*2402 [16] = biological target: HLA-A*2402 (human); test: iTopia net score;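 further: iScore from iTopia software combining peptide binding, affinity over a dilution series and off-rate after warming to body temperature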
HLA-A*0201 [17] = biological target: T2, HLA-A*0201 (human); test: iTopia binding;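 further: each peptide tested for binding to HLA-A2 molecules immobilized on plates, using a commercial screening kit run per its supplied protocol and reagents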
T2 construct: also called HLA-A2.1; HLA A2.1

HLA-A*0201 [18] = biological target: T2, HLA-A*0201; test: iTopia affinity;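 further: peptide affinity for plate-bound HLA-A2 molecules (iTopia system), with ED50 derived from an eight-point serial peptide dilution series run under binding assay conditions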
HLA-A*0201 [19] = biological target: T2, HLA-A*0201; test: iTopia off-rate;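 further: Half-life of peptide complexes with plate-bound HLA-A2, peptides loaded 18 h at 21 C, washed, then held at 37 C over several time points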
HLA-A*0201 [20] = biological target: T2, HLA-A*0201; test: iTopia net score;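 further: combined score from peptide binding, ED₅₀ and half-life of peptide complexes with plate-bound HLA-A2 molecules, computed by a proprietary formula in iTopia software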
HLA-A*0101 [21] = biological target: HLA-A*0101 (human); test: iTopia affinity
HLA-A*0101 [22] = biological target: HLA-A*0101 (human); test: iTopia off-rate
HLA-A*0101 [23] = biological target: HLA-A*0101 (human); test: iTopia net score
[24] = biological target: HLA-A2.1/cdr2(290-298) complex (human); test: cell-based or functional assay

## TQYSALKVK [cdr2 351-359 TQYSALKVK]
HLA-A*0301 [1]
  ED50: 7.5 µM
HLA-A*0301 [2]
  t1/2: 1.48
HLA-A*1101 [3]
  ED50: 2.8 µM
HLA-A*1101 [4]
  t1/2: 0.76
HLA-A*1501 [5]
  ED50: 7.6 µM
HLA-A*0301 [6]
  iScore: 0.27
HLA-A*1101 [7]
  iScore: 0.276
HLA-A*1501 [8]
  iScore: 0.181

## TGAYRARAL [cdr2 240-248 TGAYRARAL]
HLA-B*0702 [9]
  ED50: 5.7 µM
HLA-B*0702 [10]
  t1/2: 0.22
HLA-B*0801 [11]
  ED50: 18 µM
HLA-B*0702 [12]
  iScore: 0.082
HLA-B*0801 [13]
  iScore: 0.085

## KQRGISLLH [cdr2 339-347 KQRGISLLH]
HLA-A*1101 [3]
  ED50: 22 µM
HLA-A*1101 [4]
  t1/2: 0.44
HLA-A*2402 [14]
  ED50: 6.9 µM
HLA-A*2402 [15]
  t1/2: 1.52
HLA-A*1501 [5]
  ED50: 22 µM
HLA-A*1101 [7]
  iScore: 0.089
HLA-A*2402 [16]
  iScore: 0.184
HLA-A*1501 [8]
  iScore: 0.163

## RQHFVYDHV [cdr2 168-176 RQHFVYDHV]
HLA-A*0201 [17]
  binding vs positive control: > 30%
HLA-A*0201 [18]
  ED50: 6 µM
HLA-A*0201 [19]
  t1/2: 3.7
HLA-A*1501 [5]
  ED50: 39 µM
HLA-A*0201 [20]
  iScore: 0.304
HLA-A*1501 [8]
  iScore: 0.088

## ALFKEIFSC [cdr2 424-432 ALFKEIFSC]
HLA-A*0201 [17]
  binding vs positive control: > 30%
HLA-A*0201 [18]
  ED50: 30 µM
HLA-A*0201 [19]
  t1/2: 18.7
HLA-A*1501 [5]
  ED50: 8.3 µM
HLA-A*0201 [20]
  iScore: 0.546
HLA-A*1501 [8]
  iScore: 0.053

## LLHEVDTQY [cdr2 345-353 LLHEVDTQY]
HLA-A*0201 [17]
  binding vs positive control: > 30%
HLA-A*0201 [18]
  ED50: 7 µM
HLA-A*0201 [19]
  t1/2: 3.5
HLA-A*1501 [5]
  ED50: 39 µM
HLA-A*0201 [20]
  iScore: 0.204
HLA-A*1501 [8]
  iScore: 0.121

## SFACLKELY [cdr2 157-165 SFACLKELY]
HLA-A*0101 [21]
  ED50: 6.9 µM
HLA-A*0101 [22]
  t1/2: 0.97
HLA-A*2402 [14]
  ED50: 1.4 µM
HLA-A*2402 [15]
  t1/2: 0.5
HLA-A*1501 [5]
  ED50: 5.3 µM
HLA-A*0101 [23]
  iScore: 0.137
HLA-A*2402 [16]
  iScore: 0.157
HLA-A*1501 [8]
  iScore: 0.132

## DTQYSALKV [cdr2 350-358 DTQYSALKV]
HLA-A*0101 [21]
  ED50: 49 µM
HLA-A*0101 [22]
  t1/2: 0.4
HLA-A*0101 [23]
  iScore: 0.04

## AVKQRGISL [cdr2 337-345 AVKQRGISL]
HLA-A*2402 [14]
  ED50: 20 µM
HLA-A*2402 [15]
  t1/2: 1.6
HLA-B*0702 [9]
  ED50: 2.4 µM
HLA-B*0702 [10]
  t1/2: 1.18
HLA-B*0801 [11]
  ED50: 22 µM
HLA-A*1501 [5]
  ED50: 15 µM
HLA-A*2402 [16]
  iScore: 0.13
HLA-B*0702 [12]
  iScore: 0.293
HLA-B*0801 [13]
  iScore: 0.139
HLA-A*1501 [8]
  iScore: 0.16

## HLKKTVTML [cdr2 197-205 HLKKTVTML]
HLA-A*0201 [17]
  binding vs positive control: > 30%
HLA-A*0201 [18]
  ED50: 10 µM
HLA-A*0201 [19]
  t1/2: 2.5
HLA-A*2402 [14]
  ED50: 89 µM
HLA-A*2402 [15]
  t1/2: 0.8
HLA-B*0702 [9]
  ED50: 99 µM
HLA-B*0702 [10]
  t1/2: 0.11
HLA-B*0801 [11]
  ED50: 37 µM
HLA-A*0201 [20]
  iScore: 0.199
HLA-A*2402 [16]
  iScore: 0.075
HLA-B*0702 [12]
  iScore: 0.022
HLA-B*0801 [13]
  iScore: 0.123

## TLLDRNTEL [cdr2 37-45 TLLDRNTEL]
HLA-A*2402 [14]
  ED50: 56 µM
HLA-A*2402 [15]
  t1/2: 1.39
HLA-B*0801 [11]
  ED50: 360 µM
HLA-A*2402 [16]
  iScore: 0.08
HLA-B*0801 [13]
  iScore: 0.045

## ASQQKILSL [cdr2 107-113 ASQQKILSL]
HLA-A*0201 [17]
  binding vs positive control: > 30%
HLA-A*0201 [18]
  ED50: 8 µM
HLA-A*0201 [19]
  t1/2: 3.4
HLA-A*1101 [3]
  ED50: 20 µM
HLA-A*1101 [4]
  t1/2: 2.45
HLA-A*1501 [5]
  ED50: 24 µM
HLA-A*0201 [20]
  iScore: 0.174
HLA-A*1101 [7]
  iScore: 0.19
HLA-A*1501 [8]
  iScore: 0.092

## SSPTTPPEY [cdr2 414-422 SSPTTPPEY]
HLA-A*0101 [21]
  ED50: 130 µM
HLA-A*0101 [22]
  t1/2: 0.96
HLA-A*0101 [23]
  iScore: 0.05

B1: cdr2-specific murine T cell receptor of CTL clones 11 and 12 (TCR, V domains shown)
V domain 1: QQQVRQSPQSLTVWEGGTTVLTCSYEDSTFNYFPWYQQFPGEGPALLISILSVSDKKEDGRFTTFFNKREKKLSLHIIDSQPGDSATYFCAASGASGGSNAKLTFGKGTKLSVKS
V domain 2: DSGVVQSPRHIIKEKGGRSVLTCIPISGHSNVVWYQQTLGKELKFLIQHYEKVERDKGFLPSRFSVQQFDDYHSEMNMSALELEDSAMYFCASSLGGWAEQFFGPGTRLTVLE
[24]
  IFN-γ release, ELISA: 20 fold above background

## ELYDLRQHF [cdr2 163-171 ELYDLRQHF]
HLA-A*0201 [17]
  binding vs positive control: > 30%
HLA-A*0201 [18]
  ED50: 2.7 µM
HLA-A*0201 [19]
  t1/2: 0.55
HLA-A*2402 [14]
  ED50: 3.3 µM
HLA-A*2402 [15]
  t1/2: 0.23
HLA-B*0801 [11]
  ED50: 340 µM
HLA-A*0201 [20]
  iScore: 0.132
HLA-A*2402 [16]
  iScore: 0.095
HLA-B*0801 [13]
  iScore: 0.037

## RARALELEA [cdr2 244-252 RARALELEA]
HLA-B*0702 [9]
  ED50: 14 µM
HLA-B*0702 [10]
  t1/2: 0.47
HLA-A*1501 [5]
  ED50: 48 µM
HLA-B*0702 [12]
  iScore: 0.08
HLA-A*1501 [8]
  iScore: 0.118

## ALKVKYEEL [cdr2 355-363 ALKVKYEEL]
HLA-A*0201 [17]
  binding vs positive control: > 30%
HLA-A*0201 [18]
  ED50: 7 µM
HLA-A*0201 [19]
  t1/2: 0.8
HLA-A*2402 [14]
  ED50: 10 µM
HLA-A*2402 [15]
  t1/2: 0.38
HLA-B*0801 [11]
  ED50: 84 µM
HLA-A*0201 [20]
  iScore: 0.107
HLA-A*2402 [16]
  iScore: 0.076
HLA-B*0801 [13]
  iScore: 0.099

## LLEEMFLTV [cdr2 290-298 LLEEMFLTV]
HLA-A*0201 [17]
  binding vs positive control: > 30%
HLA-A*0201 [18]
  ED50: 0.6 µM
HLA-A*0201 [19]
  t1/2: 5.9
HLA-A*0101 [21]
  ED50: 21 µM
HLA-A*0101 [22]
  t1/2: 0.27
HLA-A*0201 [20]
  iScore: 0.815
HLA-A*0101 [23]
  iScore: 0.063

## EQRTKYRSL [cdr2 442-450 EQRTKYRSL]
HLA-B*0702 [9]
  ED50: 100 µM
HLA-B*0702 [10]
  t1/2: 1.59
HLA-B*0801 [11]
  ED50: 15 µM
HLA-B*0702 [12]
  iScore: 0.031
HLA-B*0801 [13]
  iScore: 0.16

## SQSLLEEMF [cdr2 287-295 SQSLLEEMF]
HLA-A*2402 [14]
  ED50: 14 µM
HLA-A*2402 [15]
  t1/2: 0.24
HLA-A*1501 [5]
  ED50: 29 µM
HLA-A*2402 [16]
  iScore: 0.048
HLA-A*1501 [8]
  iScore: 0.062

## AYRARALEL [cdr2 242-250 AYRARALEL]
HLA-A*2402 [14]
  ED50: 0.16 µM
HLA-A*2402 [15]
  t1/2: 1.11
HLA-B*0702 [9]
  ED50: 23 µM
HLA-B*0702 [10]
  t1/2: 0.15
HLA-B*0801 [11]
  ED50: 26 µM
HLA-A*2402 [16]
  iScore: 0.611
HLA-B*0702 [12]
  iScore: 0.033
HLA-B*0801 [13]
  iScore: 0.066

## AVQTSRAAA [cdr2 378-386 AVQTSRAAA]
HLA-B*0702 [9]
  ED50: 11 µM
HLA-B*0702 [10]
  t1/2: 0.9
HLA-A*1501 [5]
  ED50: 51 µM
HLA-B*0702 [12]
  iScore: 0.153
HLA-A*1501 [8]
  iScore: 0.062

## EIDEQRTKY [cdr2 439-447 EIDEQRTKY]
HLA-A*0101 [21]
  ED50: 31 µM
HLA-A*0101 [22]
  t1/2: 1.26
HLA-A*0101 [23]
  iScore: 0.107

## QMLQSEHPF [cdr2 259-267 QMLQSEHPF]
HLA-A*2402 [14]
  ED50: 53 µM
HLA-A*2402 [15]
  t1/2: 0.25
HLA-A*1501 [5]
  ED50: 8.3 µM
HLA-A*2402 [16]
  iScore: 0.082
HLA-A*1501 [8]
  iScore: 0.257
